# Results as given in the domain aggregation screens of Martell et al. (2025).
# Assay: soluble fraction after stress (log2 fold change); higher = more stays soluble; pooled small domains, quantitative proteomics
# Conditions: stress: 50 degC
# Outline: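 Pooled custom libraries of small protein domains were measured in a high-throughput format, with quantitative proteomics as the read-out. Each library was stressed at 50°C. Aggregation propensity is given as the base-two logarithm of the fold change in how much of each protein stays soluble after the stress. Higher values mean a larger share of the protein remains in solution.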
row,Sequence,soluble fraction (log2)
1,HMDSNISVSEALEMVDKGSVKEIIVEGEKLYITNQDGKQYTSSKEVGVSLIELMKDSGIDPIKSDVNIIVK,0.214
2,HMDSVEYRVITGDDVNFRKGPSTDYASLGKLNKGYKVEYISETNSWSKVKYNGQTGYVYSKYVAQT,0.0362
3,HMRRMAYLVGQRGLAMGDFISGTGQVRIGDTVWRAEAVEGELVRTGDTVVVEGAKMTTAIVRRVM,-0.351
4,HMGEWHQMLRSWGETELKNGRQNILDEAVPAFERAMIETALAHTSGRKKDAALLLGWGRNTLTRKLQEHSI,-0.0702
5,HMTEDELLAQFEEILDGYVGKPGGLIPALQTAQKLFGYLPKRVLQLISMKLDIPYSEVTGVVSFYSFFTTV,-0.0145
6,HMATTIDFTVGDDVQVMNGPLESFTGKVTELNEASQKVKVDVVMFGRVTNVELDFVQVKKIT,0.162
7,HMREISSDELHSLFSADQRGDLVINETTRLSIEKLYALHTPEEREAKVNELSGVLPSEAHRQLVHFLDYFD,-1.26
8,HMQSQIAQLYNPLLGYVKKRINSREDAEDLTQDIFLKLSKSNKDGVDNLKSWLYTIAKNTITDYYRKKKII,0.15
9,HMQNVKIKAEVKGEVISPGVYELDEESRIQDLIDASGGFSDKAYYDNINLSMKLKDEMVLVVYDKDKI,-0.163
10,HMIMQTTSDRINQRMRDLGLQHKDLVAATGASKGTVTNWINGVNNPTGKRLVQLAQALKTTSSWLLTGN,-0.12
11,HMDLLAESLTRREAEVAALAARGLTNRAIAELFGLSVRTAETHLHRAMGKLGANRREDLLLHADRLDPG,-0.629
12,HMRFDADELQKAYDLFDADENTPFKTIKQAYYALARRHHPDKNGDQEYFKVINNAFQLIQEHRRRRDN,-0.246
13,HMGAAFITSSKDNAINIRQSANTDSKVIETVTNGQILESNEKSGEWHKVTYYDNDIKKSFTGYVHEGQLK,0.125
14,HMNQNAMIGAHIRNLRLAKKLTLKQLSDESGLSVGFLSQLERGMSSIAIDTLARLAHILGADLSSFF,-0.763
15,HMTPGPFLVYITGAVERPNVLVTLDYGSRVIDALNAAGGSRIDANLDLVNLAQRLVDGDQIHVPTLR,-1.28
16,HMGQKNEDESLAKFYVHKKGNQYGPYSLIQIREYLKNNSFSLDDLASWDGQSWKKISQIPNLN,-0.075
17,HMSTTHLTASVIKDKVNVRSEADSQNGAIIDKARTGERLLVTDYGNKWTGIVLPDGKRGYIMTEYLQF,0.0443
18,HMQITAPVQKIDGVEYYMHKVEQGQTLYSISKLYNVGVKEIQKANQLGTEGIQLGQVLKVRKGG,-0.0136
19,HMEGFSAGQFVRASVDNTAFYLKRPKGDAVADKLLRRGASMKVISASGDYLKVELDSGEVGFVPPVMVE,0.05
20,HMSLPKVLVPTDITVSQLAKYLEVDAIAIVKKLFGLGVVASLNQRLENEQMQLLGQEFGKDIIFTEN,-0.438
21,HMVEPLIVRNFSINYADIDKLETKIKDYISNSDKSGVNRGRVTSDTRTNMLIVTETASKLAQVEQLLKALD,-0.181
22,HMPFSLHGVNEGSRNDNAARIAGYLISKNLNLDFVRIFLHNWNRDNKPPLPQQEIDSVVDNVKKTHDRKN,-0.828
23,HMSVLSEQIKEQLMEDIFHKKYKAGDRIVESALARELGVSQASVREALRSLIAMGFLENEPFKGITVR,0.0703
24,HMDILEVLIKKDLAMELLEQLTERQRTVVYLRYFYQLNQKEIADYLGISQQRVSEILSRAKAVLTAYTKK,-1.43
25,HMDQHERQQLLIHIAGGEREALAELYQRTRSAVYGLALSYLKNAHDAQDLTRDVYVQVWDRA,0.344

row,Sequence,soluble fraction (log2)
1,HMAIMISINAKGEVAWNDQIISLDDLAQRFNAAGQQAQKPTVQLRADKESRYDMVAQVMSRASEAGLSDIA,-0.781
2,HMEVLEGFIEDIKFKSEESGYTVAKLNNRNKSIVIVGTMPFISEGQHVKLTGEWKIHQKFGAQFNVKELEE,-0.347
3,HMETNFTGTRIATARKAKNMSQAQLAQQLFISPQAVGKWERGESIPDIVTVVKLADVLGVDLNYFSE,-0.12
4,HMVEMSNMELVREQYFQNLIYNVGDWVKDSKTEITGEVVKRGTNYLTIVQEDFTLHKVWLEDAESME,-0.581
5,HMFQRLPFSFANRYKMVLEYQHPERPPVLYYVEPLKAAAILEVSRVIKSGFTPQAIVSDEFEKKLTEAYQR,-1.1
6,HMTSPQGIERFLASGVIEGVGKAMAARIVAVFGGQTLEIIEKQPHRLREVRGIGVKTAEKIHASYQEKA,-0.81
7,HMQRYFLEEAYQPSEKFELSAEAFHHIVHVMRMKPKDRVYLAFSDQQVIIAEITEITEEKVYLTEIEKEE,-0.0978
8,HMSDEIQLQFIQISIFKDHPWADMQIKDMNIIPDLLIVMILRDGERIIPNGNTRIMPGDMVIITAMSANT,-2.89
9,HMQGEAMQETVKKLDAFLQDNSVSMSALARALGVSPSLISQFRSGSYKGDSQAIAAKINSYIDNHNKKSK,0.0765
10,HMVTPAQQARDTLLGALVGLARATTSEPKTDDTDVVLNAGLRLAAQPDAPEERLQRMLAIVQTEKHRV,0.116
11,HMEWLENIKKLKKEKGLTNESLSEKSGISVGTLNKLLSGATTDPKLSTLRPLADALEVSLDELLAI,0.166
12,HMILYDDEYKGPRYRYGLHSRPLSPGAVPKGFIIHSDRPHPDFRHGTLDYPVKLPDDRAANFELIFIGEFD,-1.02
13,HMVSVLGRRIKELRLQNSMTQMQLAKKLGYKGNSLVAGWELGKNYPSVSSIKRLSEIFDTDLMKYVG,-1.65
14,HMALTQEQLGQRLQDARKSVALTQQEVAEDLGLSRESLAQIEAGSRSVNSLEIVRLARLYGRSLSSILLE,-0.612
15,HMFIGFLHQLKEAGVPVSIREYLDFLSGLDKGITNLNTNSFYHFARASLVKDERHYDRFDRTFSEFFEGAL,-3
16,HMSITKDNLSIGTNIRISGFSDIGRIISIPNKGNQVQVQIGSAKMNIKINSIVEIIKEEKDFNKNISN,-0.102
17,HMSKPTLTLKSNAYPYNLNGERINNYLGFTYIKKGATLNYQGSKRINGQNYYYIGDGAYIKNTTVGSTNN,-1.51
18,HMYMKMNDRIRSRRKELKMTQSVLAKLVGVNRVTITGWESGDYKPGGENLQALAAALEKTPQWLLDGKD,-0.996
19,HMEDKPITKEQKQAMFALLREHFSGDEGNAVYTAVLEREGLAPGDKIMSSVYDRLIDGINEAIRQKLEAGA,0.00629
20,HMATEYIIPTVTNKKLEEAIGIAQLRGFEISVDEYKPSDIDEGTVLEQSPAAGTNAKQGDTISVTVSSG,0.294
21,HMIAVLEEGSRFRAINDISGKPFGPEMIIKNGQVIAAGKKILTKPKKLIGKKEGTKFNISGKEYVIKDI,-0.614
22,HMTDIKYLIADGNDIKHWDTASSSYVKVSELPLTSDKFKIYGDDIYHKERTGIIAASPILKIWSPSAE,0.369
23,HMGTEITEQRAKEIALENAKVAESDVTAMRVKKEMDDGVWRYDVEFYVQNKEYDYEINAMDGTILSVDYD,-0.04
24,HMKIRKAVIPAAGLGTRVLPASKSIPKEMLPIVDKPVIQYIVEEAVKAGITEILIITGRGKGAIEDHFDRS,-0.122
25,HMEDELFSVARAAFPEYASKIHMNYGSTVQSIARQSGVLTVSETKQLNENQQISYLEYSNGAVVLALA,-0.0402

row,Sequence,soluble fraction (log2)
1,HMSKDQKKFFIEIVSIRGFGSQIGISILNKLSIPQIINAIKTQNKKEISSIPGIGQKMTERLILELNNKFK,-0.0747
2,HMVHSEDLQDHKYVSQLGEVFLKENPNYENIKKSWGDHMVVIKKFGRYPHRNKILNRKSTPEELEFLKG,-0.0131
3,HMELPPLQPGQPIDGRVEQQIRAGYYVVSVRGRGYEFQLPESARPGDLLRMVYLNDHPRLTFALLRIDNAN,-0.98
4,HMGAITGLQSRVAFLKGQGTITDAEAKTAMAFLPDPTDSKEVKIAKIGQAREYIMSLIENRA,-0.106
5,HMETPSNTAGITHATSDGYIFKGESDIIGRNSFGFIVKHGSHNHIIPFDSLRGTKWEYLINKYT,0.21
6,HMANSLLVTAQAGGQKLFNFLKRSLHAENNEIHRWIRTGQVRINKKRTKAFDIVHENDEIRIPPFALNR,-0.284
7,HMKTEKYIQVISGTVNVRSGPGTSYAEIAKIDASQIYVVTAKEGEWLKISLANGTIGYVAGWLVKEVTG,-0.186
8,HMLPEGIENGDVLTRTDALDYRKWLVTGNQKRIFASTASFYGENFNYSEVKAVSDRVLDAIPDGEPV,-0.0574
9,HMVRKGEINFDQLSVRARNALRNMNILFEKEILKLTEYDLKSIPNLGVKTTNELLSYIKRLQTNQKEE,-0.191
10,HMLMYAQDEKEEASNNIPYRLLHMSFTKEQKAELQRAMDVRVPKDIILSYFYPDTPVARMMEIRRQYESA,-0.472
11,HMLSDEDMMELAIIENLQRENLNPIEEARAYESLIDKGFTHTEIADKMGKSRPYISNSIRLLSL,0.162
12,HMNSLKNKNNLIALVGASNDKNKYGNKILLDLVSKGHNVVPINPKEDTVAGLKSYNNVSELSEKPSI,-0.211
13,HMDGVTEYTVKSGDSFSAIINKHYNVNYDEKLMQAVAAYNNIEDMNKLQLGQIIKLPPKEQLNL,0.0199
14,HMYDESVFTGEYHYYYEKLSDDDKLIYRQIYAMMQKRMDGISLNTTDTDNVSRIQQFVLLDNPQF,-3.04
15,HMRRVEDVRTALEHFAAARNTTPMAMTLDQRREAMRELAASGLLNLRRALSEVAQTLGVARSTVYTYLP,-0.84
16,HMKRVTRQRTEILRVIDESERPLGPQEILQAGREAIPSLSIATIYRTLRDLLAEELIKTVALPGDSPRYES,-1.31
17,HMVVVPDVKGLKIEEAAEFFKNNNLHYNVIDSVFSKDVEPGAIVELSPLAGSKVKEGRIVFITVNALTS,-0.651
18,HMIERLVVSPAAGVFTKKMSVENNTRIDVGHVLGHVGETEVRSPFAGILQNYIAVDGERLTAHQPIAWLRS,0.00717
19,HMQGAARGMLFAQAQRWMTKFRIDPQQADRITQAALDPAQTDAILREVRRGYGPSAERALRGIIRRARRA,-0.968
20,HMDQDLGFLINKYFELGKDYNTLVEIYEKIKEYIASIDKKMLEYTKNFTIEQLKKWLDDGTINNIILTLG,-0.142
21,HMNDENIIIEEIKYFIKSNQIKEQEKLPSERNLSELFTVSRFSLRKALRHLVDTGYLYVKDKSGYYYQGD,-2.47
22,HMGDPEYFKKQLGDFMDRFNITSEDIKNLSIAGAINRMMNNAEGEDKTVLSKLLETVNKSGVGNLPAKTI,0.0622
23,HMVELRDGSLPLARGSVGDLVAEVQRKLGVAADGIFGPQTERAVRAFQARAGLASDGIVGPLTWSALFGA,-0.282
24,HMPMPQDEVSYALGLSIGQNFKASGIKAITSEDFIAGLQDALAEREPQMTTERAREVINQLFMRLQQEESE,0.145
